Measurements as given in patent US20240091270A1.

Target: murine CD47 on mouse pancreatic beta islet cells (MIN6) (murine) (UniProt Q61735)
Experiment: cell-based or functional assay

Sequence of UniProt Q61735 (Q61735 19-303): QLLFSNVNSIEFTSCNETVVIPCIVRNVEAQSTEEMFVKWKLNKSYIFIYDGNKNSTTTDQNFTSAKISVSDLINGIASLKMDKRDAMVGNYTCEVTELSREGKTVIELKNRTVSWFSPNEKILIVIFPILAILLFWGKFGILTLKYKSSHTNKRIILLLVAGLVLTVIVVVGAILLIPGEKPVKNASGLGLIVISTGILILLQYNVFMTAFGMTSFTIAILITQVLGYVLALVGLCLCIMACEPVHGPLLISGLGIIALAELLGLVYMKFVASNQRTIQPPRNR

- relative increase in insulin protein content in glucose stimulated mouse pancreatic beta islet cells relative to vinculin (SDS-PAGE band density): > 2 fold
Substance: anti-CD47 blocking antibody (clone MIAP301, SC-12731, Santa Cruz Inc.)
